Results taken from the RNAGym collection of RNA variant scans (doi:10.7554/elife.80360).

B1: CPEB3 Ribozyme (parent)
chain: GGGGGCCACAGCAGAAGCGUUCACGUCGCGGCCCCUGUCAGAUUCUGGUGAAUCUGCGAAUUCUGCUGU

Variants of: B1
Experiment: self-cleavage, relative activity (ratio to wild type); higher = more cleavage; co-transcriptional

Row | Variant | self-cleavage
1 | U55C C66U | 0.816
2 | U55C G56U | 0.686
3 | U55C G58A | 0.91
4 | U55C G58C | 0.918
5 | U55C G58U | 0.968
6 | U55C G65C | 0.416
7 | U55C G68C | 0.977
8 | U55C G68U | 0.908
9 | U55C U61A | 0.604
10 | U55C U61C | 0.407
11 | U55C U62G | 0.559
12 | U55C U64C | 0.662
13 | U55C U64G | 0.531
14 | U55C U67C | 0.912
15 | U55C U69A | 0.971
16 | U55C U69C | 1.06
17 | U55C U69G | 1.01
18 | U55G A59C | 0.364
19 | U55G A59G | 0.81
20 | U55G A60C | 0.296
21 | U55G C57G | 0.39

Row | Variant | self-cleavage
22 | U55G C57U | 0.378
23 | U55G C63A | 0.345
24 | U55G C63G | 0.399
25 | U55G C66A | 0.437
26 | U55G C66U | 0.681
27 | U55G G56A | 0.963
28 | U55G G58A | 0.644
29 | U55G G58C | 0.964
30 | U55G G65A | 0.408
31 | U55G G65C | 0.417
32 | U55G G65U | 0.307
33 | U55G G68A | 0.951
34 | U55G G68C | 0.972
35 | U55G U61C | 0.293
36 | U55G U61G | 0.547
37 | U55G U62A | 0.427
38 | U55G U62C | 0.517
39 | U55G U64A | 0.371
40 | U55G U64C | 0.411
41 | U55G U67A | 0.884
42 | U55G U67C | 0.612

Row | Variant | self-cleavage
43 | U55G U69A | 0.953
44 | U55G U69G | 1
45 | G56A | 0.977
46 | G56A A59G | 0.649
47 | G56A A59U | 0.735
48 | G56A A60C | 0.382
49 | G56A A60G | 0.856
50 | G56A A60U | 0.326
51 | G56A C57A | 0.413
52 | G56A C57G | 0.306
53 | G56A C57U | 0.308
54 | G56A C63G | 0.667
55 | G56A C63U | 0.943
56 | G56A C66G | 0.744
57 | G56A C66U | 0.929
58 | G56A G58U | 0.994
59 | G56A G65A | 0.777
60 | G56A G65C | 0.508
61 | G56A G65U | 0.627
62 | G56A G68A | 0.995
63 | G56A U61A | 0.824

Row | Variant | self-cleavage
64 | G56A U62A | 0.811
65 | G56A U62C | 0.732
66 | G56A U62G | 0.775
67 | G56A U64A | 0.798
68 | G56A U67A | 0.927
69 | G56A U67C | 0.913
70 | G56A U67G | 0.995
71 | G56A U69C | 1.04
72 | G56A U69G | 1.03
73 | G56C | 0.871
74 | G56C A59U | 0.392
75 | G56C A60G | 0.608
76 | G56C A60U | 0.795
77 | G56C C57A | 0.3
78 | G56C C57G | 0.343
79 | G56C C57U | 0.483
80 | G56C C66A | 0.39
81 | G56C C66G | 0.517
82 | G56C C66U | 0.748
83 | G56C G65U | 0.512
